B1: PDZK1 (parent)
chain: RETASLKLLPHQPRIVEMKKGSNG
B2: ZBED3 (parent)
chain: QARLRDVSRREGALGWAPAAPPPL

Variants of: B1
Experiment: protein stability index of a GFP-peptide fusion (GPS, HEK-293T) (PSI 1-6); higher = more stable
Conditions: c terminus: a fixed tail appended
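Also: lentivirally expressed fusions sorted by FACS into six bins by GFP to DsRed ratio, PSI derived from sequencing read proportions per bin multiplied by bin number.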

Protein stability index, by site and new letter:
K20: A 3.46; P 3.99; Q 4.06; V 3.7; T 3.51; E 4.87; C 3.65; H 4.4; N 4.28; M 3.57; F 3; L 3.61; W 2.48; I 3.41; G 4.14; Y 3.62
N23: C 3.25; E 4.45; A 3.62; T 3.52; R 4.48; Y 3.3; Q 4.32; V 3.72; S 3.14; I 3.24; L 3.11; P 4.22; D 4.24; K 4.18; G 3.62; M 3.24; W 3.12
K19: R 2.63; D 4.35; N 3.28; E 3.94; C 2.29; G 4.83; I 2.77; H 2.65; V 2.39; W 3.14; S 3.49; T 2.61; A 3.55; P 4.52; Y 2.2; L 2.79
G21: Q 2.92; A 2.67; V 3.56; D 4.48; R 3.9; S 3.37; W 2.6; L 1.83; M 2.22; P 3.77; K 3.74; Y 2.13; N 3.43; C 2.58; E 4.29; T 2.25; I 3.23; F 2.64
S22: Q 3.88; V 4; M 3.85; G 4.28; Y 2.61; E 4.54; N 4.09; L 3.03; T 3.51; F 2.47; P 3.33; C 3.25; I 3.38; K 4.03; D 4.55
V16: M 4.17; G 4.85; I 3.9; P 4.63; Q 4.51; W 3.57; D 4.18; T 4.67; E 4.53; A 4.42; L 3.87; H 4.35; S 3.92; N 4.88; F 4.05; Y 3.68
I15: E 5.02; T 4.49; K 4.75; Q 4.72; V 3.51; F 3.44; R 4.51; P 4.39; L 4.16; D 4.66; G 5.16; S 4.69; Y 4.01; W 2.79; N 4.99; M 3.89
E17: R 4.02; K 3.82; W 2.7; V 3.21; G 3.48; C 3.17; H 3.67; Q 2.92; I 2.42; P 2.97; Y 2.51; S 3.67; N 4.28; D 4.08; T 3.86; L 2.66; F 2.81
M18: S 4.79; K 4.56; W 3.53; L 4.15; C 4.33; T 4.85; E 5.25; P 4.58; I 4.21; Q 4.58; H 4.44; V 3.86; A 4.51; F 4; R 4.93; D 5.3; Y 3.91
G24: S 3.99; Q 4.58; H 4.17; K 4.76; Y 3.56; L 3.53; F 3.05; W 3.88; R 4.03; P 4.01; A 4.52; E 4.82; C 4.01; N 4.49; T 4.41; M 4.17; V 4.15; D 5

Variants of: B2
Experiment: as above
Conditions: c terminus: a fixed tail appended

Protein stability index of substitutions, site by site:
P18: E 3.56

From the supplement of paper PMC10567573
